These results are taken from patent publication US20030008857A1, “Photodynamic therapy (PDT) in combination with factors that bind cell surface apoptosis-inducing receptors” (priority 1999, published 2003).

Entries after “also recorded” stand apart in the source; their conditions may differ.

Holding throughout (assay type): cell-based, human
Series [1] deals with Jurkat T cells. Put plainly: DNA fragmentation (sub-diploid DNA) by PI staining and flow cytometry. The protocol: (§1) The human Jurkat T cell line containing a neomycin resistance gene was obtained from Dr. Charles Rudin (University of Chicago). Cells were maintained in RPMI 1640 medium containing 10% heat-inactivated fetal calf serum (FCS) with penicillin (100 U/mL), streptomycin (100 μg/mL), 20 mM HEPES, 2 mM L-glutamine and G418 (1 μg/ml) purchased from Gibco BRL (Burlington, Ontario) in a CO2 incubator at 37° C. To elicit apoptosis with PDT, Jurkat cells were incubated with different amounts of liposomally formulated benzoporphyrin derivative monoacid ring A (BPD-MA, verteporfin, QLT PhotoTherapeutics, Inc., Vancouver, Canada) for one hour at 37° C. under light-protected conditions. The culture medium used for experiments was identical to that used for the passage of the cells except that FCS was used at a concentration of 5%. Experiments were conducted either in 6-well culture plates at 5×10^6 cells in a volume of 4 ml per well or in 96-well microtiter plates at 1×10^5 cells per well at 0.2 ml per well. Cells were irradiated with light of a wavelength of 690 nm delivered at 65-73 mW/sec from light emitting diodes (LED) to achieve a total light dose of 5 J/cm^2. Cells were returned to the incubator until required for analysis.
(§2) FasL and TRAIL as used were recombinant preparations. FasL was obtained from Upstate Biotechnology (Lake Placid NY) and corresponded to amino acids 103-281 of the soluble domain of human FasL. TRAIL was obtained from BIOMOL Research Laboratories (Plymouth Meeting, Pa.) and corresponded to residues 114-281 of the soluble domain of human TRAIL. FasL and TRAIL were usually added immediately following the treatment of cells with PDT, although in one series of experiments these factors were added at 1, 2 or 3 hours post-irradiation.
The proportion of cells containing sub-diploid levels of DNA 24 hours following treatment was determined using a propidium iodide (“PI”) fluorescence analysis procedure as described by Telford et al. (“Rapid Quantitation of Apoptosis in Pure and Heterogeneous Cell Populations Using Flow Cytometry” J. Immunol Methods 172:1-6 (1994)) or by Darzynkieicz et al. (“Features of Apoptotic Cells Measured by Flow Cytometry”, Cytometry, 13:795-808 (1992)).
Twenty four hours following PDT, 5×10^5 cells were washed twice with ice-cold PBS and then permeablized and fixed in 80% ethanol at 4° C. for one hour. The cells were again washed in ice-cold PBS and stained with PI (50 μg/mL) in PBS with simultaneous deoxyribose nuclease-free ribonuclease A (5 U/mL) treatment. These samples were analyzed by flow cytometry. The percentage of apoptotic cells was calculated using single color analysis for PI fluorescence with a Coulter XL flow cytometer (Coulter Electronics, Inc., Hialeah, Fla.). […] The degree of separation between the apoptotic population and the G0/G1 peak is readily apparent and the percentage of apoptotic cells is determined from the subsequent histogram.
On the technique in general: A flow cytometer gives signals particle by particle.

Series [2] has as its system DEVDase (caspases 3 and 7). Kind of series: Protease assay of cell extracts with Ac-DEVD-AMC. The following applies: FasL 7.5 ng/ml, 3 hours, Jurkat whole cell extracts. The method, then:
as §1, with “Cells were irradiated with light of a wavelength of 690 nm delivered at 65-73 mW/sec from light emitting diodes (LED) to achieve a total light dose of 5 J/cm^2. Cells were returned to the incubator until required for analysis.” left out
(§3) These sequences are denoted by letter codes for each amino acid. […] The reaction mixture was incubated at 37° C. for 1 (DEVD.AMC) or 24 (VEID.AMC and IETH.AMC) h and fluorescence was measured using an excitation at 380 nm and an emission wavelength of 460 nm with a CytoFluor™ 2350 fluorescent measuring system (Perseptive Biosystems, Burlington, Ont).

The subject of series [3] is VEIDase (caspase 6). Kind of series: Protease assay of cell extracts with Ac-VEID-AMC. The conditions noted are these: FasL 7.5 ng/ml, 3 hours, Jurkat whole cell extracts. The method, then:
as §1, with “Cells were irradiated with light of a wavelength of 690 nm delivered at 65-73 mW/sec from light emitting diodes (LED) to achieve a total light dose of 5 J/cm^2. Cells were returned to the incubator until required for analysis.” left out
as §3

Series [4] deals with IETDase (caspase 8). Put plainly: Protease assay of cell extracts with Ac-IETD-AMC. The following applies: FasL 7.5 ng/ml, 3 hours, Jurkat whole cell extracts. The protocol:
as §1, with “Cells were irradiated with light of a wavelength of 690 nm delivered at 65-73 mW/sec from light emitting diodes (LED) to achieve a total light dose of 5 J/cm^2. Cells were returned to the incubator until required for analysis.” left out
as §3

In series [5] the test system is caspase-3, -6 and -8. Kind of series: Caspase cleavage activity of cell extracts, statements covering DEVD, VEID and IETD peptides together. The protocol:
as §1, §2
Whole cell lysates were prepared by washing 1×10^7 cells per sample twice with ice-cold PBS. Cells were disrupted with 1 mL of lysis buffer [1% Nonidet P-40 detergent (NP-40), 20 mM Tris-HCl, pH 8.0, 137 mM NaCl, 10% glycerol, 1 mM phenylmethylsulfonyl fluoride (PMSF) aprotinln (0.15 U/mL) and 1 mM sodium orthovanadate] for 20 minutes on ice. Lysates were centrifuged for 10 minutes at 15,800×g at 4° C.
These sequences are denoted by letter codes for each amino acid. To evaluate relative DEVDase (caspases 3 and 7), VEIDase (caspase 6) and IETDase (caspase 8) cleavage activity, Jurkat cell lysates were incubated with caspase-specific fluorescent substrates as described by Granville et al. (“Photodynamic therapy induces caspase-3 activation in HL-60 cells”, Cell Death Differ., 4, 623-629 (1997)). Briefly, lysates were incubated with reaction buffer (20 mM Tris pH 7.5, 137 mM NaCl, 1% NP-40, 10% glycerol) containing 100 μM of the caspase substrates Ac-DEVD-AMC (Calbiochem, Cambridge, Mass.), Ac-VEID-AMC (Calbiochem, Cambridge, Mass.), Ac-lETD-AMC (BIOMOL, Plymouth Meeting Pa.), and Ac-LEHD-AMC (Calbiochem, Cambridge, Mass.). The letter codes for the amino acid residues present within the inhibitor peptides are as following: D=aspartic acid; E=glutamic acid; H=histidine; I=isoleucine; T=threonine; V=valine. The reaction mixture was incubated at 37° C. for 1 (DEVD.AMC) or 24 (VEID.AMC and IETH.AMC) h and fluorescence was measured using an excitation at 380 nm and an emission wavelength of 460 nm with a CytoFluor™ 2350 fluorescent measuring system (Perseptive Biosystems, Burlington, Ont).

The subject of series [6] is caspase-3, -6, -8 and -9 and PARP. Kind of series: Western immunoblot of caspase processing and PARP cleavage in Jurkat cells. The conditions noted are these: 3 hours. The protocol: as §1
(§4) FasL and TRAIL as used were recombinant preparations. […]
Background: A western blot detects proteins with antibodies after separation by electrophoresis.

Series [7] has as its system cytochrome c. Put plainly: Cytochrome c in cytosolic extracts of Jurkat cells (immunoblot). The conditions noted are these: 3 hours. The method, then:
as §1, §4

The mark [8] stands for this setting: FasL 7.5 ng/ml or TRAIL 20 ng/ml.

B1: FasL: recombinant, amino acids 103-281 of the soluble domain of human FasL (Upstate Biotechnology) (protein, UniProt P48023 103-281, looked up, fragment)
chain: QLFHLQKELAELRESTSQMHTASSLEKQIGHPSPPPEKKELRKVAHLTGKSNSRSMPLEWEDTYGIVLLSGVKYKKGGLVINETGLYFVYSKVYFRGQSCNNLPLSHKVYMRNSKYPQDLVMMEGKMMSYCTTGQMWARSSYLGAVFNLTSADHLYVNVSELSLVNFEESQTFFGLYKL
For B1, the “increase in proportion of cells with sub-diploid DNA versus light-treated control cells” value in series [1] (FasL 7.5 ng/ml added after PDT with verteporfin 2 ng/ml, 5 J/cm^2, 24 hours) is listed as “twelve-fold”. Besides, in series [1] (FasL 7.5 ng/ml by itself, 24 hours (FIG. 2)), the “increase in the number of cells displaying DNA fragmentation” value is listed as “seven-fold”. For the same molecule, the “cells with induced DNA fragmentation” value in series [1] (FasL 200 ng/ml, within 24 hours) is “approximately 60%”. Moreover, in series [1] (TRAIL 20 ng/ml or FasL 7.5 ng/ml added after PDT with verteporfin 0.5 and 1 ng/ml), the “proportion of cells with sub-diploid DNA compared with PDT alone” value is on record as “a greater proportion of cells contained a sub-diploid level of DNA”. Also, the “DNA fragmentation induced by the factor without PDT across addition times” value in series [1] (added at 5 minutes, 1, 2 or 3 hours, FasL 7.5 ng/ml, TRAIL 20 ng/ml, individually or in combination) is listed as “a comparable level of DNA fragmentation”. Further, the “change of the combined effect with PDT on DNA fragmentation” value in series [1] (factor added at 3 hours post-PDT (verteporfin 2 ng/ml)) was “a modest decline”. In addition, the “capacity to accentuate PDT-mediated apoptosis (DNA fragmentation)” value in series [1] (factor added up to 3 hours after PDT (verteporfin 2 ng/ml), FasL 7.5 ng/ml, TRAIL 20 ng/ml) is recorded as “still demonstrable”. For the same molecule, the “increase in DEVDase-like cleavage activity versus control cells” value in series [2] is listed as “approximately two-fold”. Also, in series [3], the “increase in VEIDase-like cleavage activity versus control cells” value is reported as “approximately two-fold”. Moreover, in series [4], the “increase in IETDase-like activity versus control cells” value is “one-and-half fold”. Moreover, the “caspase activity compared with the treatments given independently” value in series [5] (FIG. 7: factor combined with PDT (verteporfin 5 ng/ml, 5 J/cm^2), 3 hours) is recorded as “higher caspase activity”. Besides, the “protease activity on DEVD, VEID and IETD peptides, single treatment” value in series [5] (FIG. 7: verteporfin 5 ng/ml with light, FasL 7.5 ng/ml or TRAIL 20 ng/ml alone, 3 hours) is “modestly increased”. The “nature of the combined effect on caspase cleavage activity” value in series [5] (FasL 7.5 ng/ml plus PDT at verteporfin 5 ng/ml) is reported as “greater than additive effect”. For the same molecule, the “caspase cleavage activity levels relative to PDT or FasL applied independently” value in series [5] (FasL 7.5 ng/ml plus PDT at verteporfin 5 ng/ml, 3 hours) is 2-5 fold. For the same molecule, in series [5] (factor plus verteporfin in the absence of light irradiation), the “protease activity compared with FasL or TRAIL alone” value is recorded as “no different”. Further, the “caspase processing and PARP degradation compared with PDT or the factor alone” value in series [6] (FasL 7.5 ng/ml or TRAIL 20 ng/ml combined with verteporfin PDT) was “more extensive caspase processing and PARP degradation; also recorded: a higher degree of processing”. The “processing of caspases and PARP by the factor alone” value in series [6] (setting [8]) is “little or no processing; also recorded: little detectable processing”. The “cytochrome c in cytosolic extracts, factor alone” value in series [7] (setting [8]) was “background levels of cytochrome c”. Moreover, in series [7] (PDT in combination with TRAIL 20 ng/ml or FasL 7.5 ng/ml), the “cytochrome c in cytosolic extracts, factor with PDT” value was “readily detectable amounts of cytochrome c”.
